According to article PMC3145628, “A Rice Plastidial Nucleotide Sugar Epimerase Is Involved in Galactolipid Biosynthesis and Improves Photosynthetic Efficiency” (PLoS Genetics, 2011):

Substrate: O=c1ccn([C@@H]2O[C@H](COP(=O)(O)OP(=O)(O)O[C@H]3O[C@H](CO)[C@H](O)[C@H](O)[C@H]3O)[C@@H](O)[C@H]2O)c(=O)[nH]1
Experiment: purified protein
Type: biochemical, Oryza sativa
Details: 30°C, 100 mM glycine buffer pH 8.7, 1 mM NAD+, UDP-Gal varied 0.4-3.2 mM

B1: PHD1 (PHOTO… …1) (Oryza sativa Japonica Group) (protein)
chain: DDTGVKMAGSDIVGKNDLLIVGPGVLGRLVAEKWQEEHPGCKVFGQTASTDHHNELSNIGIIPSLKGSTFPQKVPYVIFCAPPSRSDDYPGDVRVAASNWTGEGSFVFTSSTALYDCSDNELCNEDCPSVPIGRSPRTDVLLKAENVVLEAGGCVLRLAGLYKIDRGAHFFWLRKGTLDTRPDHIINQIHYEDAASLAIAIMKKGHRGRIFLGCDNKPLSRQEIMDSVNRSGKFDTKFQGFTGTDGPLGKKMENSRTRSEIGWEPKYPSFTEFLGLDS
notes: mature protein without putative N-terminal 62-aa chloroplast transit peptide (full length 340 aa); expressed in E. coli; pGEX-4T-1 (GST) in BL21(DE3), glutathione Sepharose purified (described for antibody production)
Protein B1 has a Km of 840 µM.
